T1: human FcγRIIb (human, UniProt P31994 43-217)
T1 construct: also called FcgRIIb; FcγIIB
T1 sequence: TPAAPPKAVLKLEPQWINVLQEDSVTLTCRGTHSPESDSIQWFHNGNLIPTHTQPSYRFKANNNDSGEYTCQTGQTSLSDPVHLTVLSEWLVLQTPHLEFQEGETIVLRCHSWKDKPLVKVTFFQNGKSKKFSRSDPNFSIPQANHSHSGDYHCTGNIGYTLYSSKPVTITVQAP

T2: human FcγRIIa type H (human, UniProt P12318 36-217)
T2 construct: also called FcgRIIaH; FcγRIIa(H)
T2 sequence: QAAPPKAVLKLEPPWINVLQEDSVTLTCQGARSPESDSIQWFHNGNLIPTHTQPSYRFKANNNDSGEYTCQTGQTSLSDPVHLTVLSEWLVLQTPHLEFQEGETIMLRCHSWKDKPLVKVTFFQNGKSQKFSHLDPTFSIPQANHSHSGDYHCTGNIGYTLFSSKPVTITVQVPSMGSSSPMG

T3: human FcγRIIa type R (human, UniProt P12318 36-217)
T3 construct: also called FcgRIIaR; FcγRIIa(R)
T3 chain: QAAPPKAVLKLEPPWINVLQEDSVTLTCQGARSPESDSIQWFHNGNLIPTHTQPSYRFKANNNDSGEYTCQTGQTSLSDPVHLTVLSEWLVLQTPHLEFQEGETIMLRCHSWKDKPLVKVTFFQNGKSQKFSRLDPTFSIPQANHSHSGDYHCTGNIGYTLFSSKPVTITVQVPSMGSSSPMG


Key:
Assay in all cases: SPR (Biacore), FcγR over captured antibody; binding amount / that of IL6R-BF648/IL6R-L x100
human FcγRIIb = molecular target: T1, human FcγRIIb
Experimental: (§1) According to the following method, relative binding activities were calculated for the results of analyzing interactions with the respective FcγRs.

human FcγRIIa type H = molecular target: T2, human FcγRIIa type H
Experimental: as §1

human FcγRIIa type R = molecular target: T3, human FcγRIIa type R
Experimental: as §1

human FcγRIIIa type V = molecular target: T4, human FcγRIIIa type V (human, UniProt P08637 17-208, limits assumed)
T4 construct: Allotype V158 was used; also called FcgRIIIaV; FcγRIIIa(V)
T4 sequence (P08637 other isoform, or with tags, fused parts or gaps limits assumed): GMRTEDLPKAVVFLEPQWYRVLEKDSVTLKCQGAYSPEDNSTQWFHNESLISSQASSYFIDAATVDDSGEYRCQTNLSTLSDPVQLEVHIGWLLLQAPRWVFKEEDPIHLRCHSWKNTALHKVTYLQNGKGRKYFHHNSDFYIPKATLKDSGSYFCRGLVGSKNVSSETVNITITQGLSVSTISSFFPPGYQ
Experimental: as §1

human FcγRIa = molecular target: T5, human FcγRIa (human, UniProt P12314 16-292, limits assumed)
T5 construct: also called FcgRIa; CD64
T5 sequence (P12314 16-292 limits assumed): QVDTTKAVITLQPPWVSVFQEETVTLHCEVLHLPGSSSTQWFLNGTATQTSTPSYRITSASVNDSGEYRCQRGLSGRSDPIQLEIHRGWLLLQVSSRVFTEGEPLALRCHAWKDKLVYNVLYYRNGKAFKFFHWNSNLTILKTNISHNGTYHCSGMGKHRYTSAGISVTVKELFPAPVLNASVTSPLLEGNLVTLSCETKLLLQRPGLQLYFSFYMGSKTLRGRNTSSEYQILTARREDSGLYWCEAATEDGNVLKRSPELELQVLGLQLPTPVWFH
Experimental: as §1

Row | Binder | relative binding activity (human FcγRIIb) | relative binding activity (human FcγRIIa type H) | relative binding activity (human FcγRIIa type R) | relative binding activity (human FcγRIIIa type V) | relative binding activity (human FcγRIa)
1 | IL6R-BP082/IL6R-L (antibody, human IgG1) heavy: QVQLQESGPGLVKPSETLSLTCAVSGHSISHDHAWSWVRQPPGEGLEWIGFISYSGITNYNPSLQGRVTISRDNSKNTLYLQMNSLRAEDTAVYYCARSLARTTAMDYWGEGTLVTVSSASTKGPSVFPLAPSSKSTSGGTAALGCLVKDYFPEPVTVSWNSGALTSGVHTFPAVLQSSGLYSLSSVVTVPSSSLGTQTYICNVNHKPSNTKVDKKVEPKSCDKTHTCPPCPAPDLLGGDSVFLFPPKPKDTLMISRTPEVTCVVVDVSHEDPEVKFNWYVDGVEVHNAKTKPREEQYNSTYRVVSVLTVLHQDWLNGKEYKCKVSNKALPKPIEKTISKAKGQPREPQVYTLPPSRDELTKNQVSLTCLVKGFYPSDIAVEWESNGQPENNYKTTPPVLDSDGSFFLYSKLTVDKSRWQQGNVFSCSVMHEALHNHYTQESLSLSP light: DIQMTQSPSSLSASVGDRVTITCRASQDISSYLNWYQQKPGKAPKLLIYYTSRLHSGVPSRFSGSGSGTDFTFTISSLQPEDIATYYCQQGNTLPYTFGQGTKVEIK | 136 % of IL6R-BF648/IL6R-L | 106 % of IL6R-BF648/IL6R-L | 126 % of IL6R-BF648/IL6R-L | 87 % of IL6R-BF648/IL6R-L | 74 % of IL6R-BF648/IL6R-L
2 | IL6R-2B253/IL6R-L (antibody, human IgG1) heavy: QVQLQESGPGLVKPSETLSLTCAVSGHSISHDHAWSWVRQPPGEGLEWIGFISYSGITNYNPSLQGRVTISRDNSKNTLYLQMNSLRAEDTAVYYCARSLARTTAMDYWGEGTLVTVSSASTKGPSVFPLAPSSKSTSGGTAALGCLVKDYFPEPVTVSWNSGALTSGVHTFPAVLQSSGLYSLSSVVTVPSSSLGTQTYICNVNHKPSNTKVDKKVEPKSCDKTHTCPPCPAPDLLGGDSVFLFPPKPKDTLMISRTPEVTCVVVDVSHEDPEVKFNWYVDGVEVHNAKTKPREEQYNSTYRVVSVLTVLHQDWLNGKEYKCKMSNKALPAPIEKTISKAKGQPREPQVYTLPPSRDELTKNQVSLTCLVKGFYPSDIAVEWESNGQPENNYKTTPPVLDSDGSFFLYSKLTVDKSRWQQGNVFSCSVMHEALHNHYTQESLSLSP light: DIQMTQSPSSLSASVGDRVTITCRASQDISSYLNWYQQKPGKAPKLLIYYTSRLHSGVPSRFSGSGSGTDFTFTISSLQPEDIATYYCQQGNTLPYTFGQGTKVEIK | 156 % of IL6R-BF648/IL6R-L | 207 % of IL6R-BF648/IL6R-L | 288 % of IL6R-BF648/IL6R-L | 126 % of IL6R-BF648/IL6R-L | 155 % of IL6R-BF648/IL6R-L
3 | IL6R-2B261/IL6R-L (antibody, human IgG1) heavy: QVQLQESGPGLVKPSETLSLTCAVSGHSISHDHAWSWVRQPPGEGLEWIGFISYSGITNYNPSLQGRVTISRDNSKNTLYLQMNSLRAEDTAVYYCARSLARTTAMDYWGEGTLVTVSSASTKGPSVFPLAPSSKSTSGGTAALGCLVKDYFPEPVTVSWNSGALTSGVHTFPAVLQSSGLYSLSSVVTVPSSSLGTQTYICNVNHKPSNTKVDKKVEPKSCDKTHTCPPCPAPDLLGGDSVFLFPPKPKDTLMISRTPEVTCVVVDVSHEDPEVKFNWYVDGVEVHNAKTKPREEQDNSTYRVVSVLTVLHQDWLNGKEYKCKVSNKALPAPIEKTISKAKGQPREPQVYTLPPSRDELTKNQVSLTCLVKGFYPSDIAVEWESNGQPENNYKTTPPVLDSDGSFFLYSKLTVDKSRWQQGNVFSCSVMHEALHNHYTQESLSLSP light: DIQMTQSPSSLSASVGDRVTITCRASQDISSYLNWYQQKPGKAPKLLIYYTSRLHSGVPSRFSGSGSGTDFTFTISSLQPEDIATYYCQQGNTLPYTFGQGTKVEIK | 115 % of IL6R-BF648/IL6R-L | 91 % of IL6R-BF648/IL6R-L | 94 % of IL6R-BF648/IL6R-L | 87 % of IL6R-BF648/IL6R-L | 100 % of IL6R-BF648/IL6R-L
4 | IL6R-B3/IL6R-L (antibody, human IgG1, Parent polypeptide) heavy: not shown light: DIQMTQSPSSLSASVGDRVTITCRASQDISSYLNWYQQKPGKAPKLLIYYTSRLHSGVPSRFSGSGSGTDFTFTISSLQPEDIATYYCQQGNTLPYTFGQGTKVEIK | 58 % of IL6R-BF648/IL6R-L | 1600 % of IL6R-BF648/IL6R-L | 625 % of IL6R-BF648/IL6R-L | 3260 % of IL6R-BF648/IL6R-L | 145 % of IL6R-BF648/IL6R-L
5 | IL6R-BF648/IL6R-L (antibody, human IgG1) heavy: not shown light: DIQMTQSPSSLSASVGDRVTITCRASQDISSYLNWYQQKPGKAPKLLIYYTSRLHSGVPSRFSGSGSGTDFTFTISSLQPEDIATYYCQQGNTLPYTFGQGTKVEIK | 100 % of IL6R-BF648/IL6R-L | 100 % of IL6R-BF648/IL6R-L | 100 % of IL6R-BF648/IL6R-L | 100 % of IL6R-BF648/IL6R-L | 100 % of IL6R-BF648/IL6R-L
6 | IL6R-BP083/IL6R-L (antibody, human IgG1, The variants were built on IL6R-BF648 (P238D), so it is read as P238D) heavy: QVQLQESGPGLVKPSETLSLTCAVSGHSISHDHAWSWVRQPPGEGLEWIGFISYSGITNYNPSLQGRVTISRDNSKNTLYLQMNSLRAEDTAVYYCARSLARTTAMDYWGEGTLVTVSSASTKGPSVFPLAPSSKSTSGGTAALGCLVKDYFPEPVTVSWNSGALTSGVHTFPAVLQSSGLYSLSSVVTVPSSSLGTQTYICNVNHKPSNTKVDKKVEPKSCDKTHTCPPCPAPELLGGDSVFLFPPKPKDTLMISRTPEVTCVVVDVSHEDPEVKFNWYVDGVEVHNAKTKPREEQDNSTYRVVSVLTVLHQDWLNGKEYKCKVSNKALPKPIEKTISKAKGQPREPQVYTLPPSRDELTKNQVSLTCLVKGFYPSDIAVEWESNGQPENNYKTTPPVLDSDGSFFLYSKLTVDKSRWQQGNVFSCSVMHEALHNHYTQESLSLSP light: DIQMTQSPSSLSASVGDRVTITCRASQDISSYLNWYQQKPGKAPKLLIYYTSRLHSGVPSRFSGSGSGTDFTFTISSLQPEDIATYYCQQGNTLPYTFGQGTKVEIK | 122 % of IL6R-BF648/IL6R-L | 91 % of IL6R-BF648/IL6R-L | 87 % of IL6R-BF648/IL6R-L | 107 % of IL6R-BF648/IL6R-L | 50 % of IL6R-BF648/IL6R-L
7 | IL6R-BP084/IL6R-L (antibody, human IgG1) heavy: QVQLQESGPGLVKPSETLSLTCAVSGHSISHDHAWSWVRQPPGEGLEWIGFISYSGITNYNPSLQGRVTISRDNSKNTLYLQMNSLRAEDTAVYYCARSLARTTAMDYWGEGTLVTVSSASTKGPSVFPLAPSSKSTSGGTAALGCLVKDYFPEPVTVSWNSGALTSGVHTFPAVLQSSGLYSLSSVVTVPSSSLGTQTYICNVNHKPSNTKVDKKVEPKSCDKTHTCPPCPAPELLGGDSVFLFPPKPKDTLMISRTPEVTCVVVDVSHEDPEVKFNWYVDGVEVHNAKTKPREEQYNSTYRVVSVLTVLHQDWLNGKEYKCKMSNKALPKPIEKTISKAKGQPREPQVYTLPPSRDELTKNQVSLTCLVKGFYPSDIAVEWESNGQPENNYKTTPPVLDSDGSFFLYSKLTVDKSRWQQGNVFSCSVMHEALHNHYTQESLSLSP light: DIQMTQSPSSLSASVGDRVTITCRASQDISSYLNWYQQKPGKAPKLLIYYTSRLHSGVPSRFSGSGSGTDFTFTISSLQPEDIATYYCQQGNTLPYTFGQGTKVEIK | 141 % of IL6R-BF648/IL6R-L | 162 % of IL6R-BF648/IL6R-L | 203 % of IL6R-BF648/IL6R-L | 106 % of IL6R-BF648/IL6R-L | 109 % of IL6R-BF648/IL6R-L
8 | IL6R-BP181/IL6R-L (antibody, human IgG1) heavy: QVQLQESGPGLVKPSETLSLTCAVSGHSISHDHAWSWVRQPPGEGLEWIGFISYSGITNYNPSLQGRVTISRDNSKNTLYLQMNSLRAEDTAVYYCARSLARTTAMDYWGEGTLVTVSSASTKGPSVFPLAPSSKSTSGGTAALGCLVKDYFPEPVTVSWNSGALTSGVHTFPAVLQSSGLYSLSSVVTVPSSSLGTQTYICNVNHKPSNTKVDKKVEPKSCDKTHTCPPCPAPDLLGGDSVFLFPPKPKDTLMISRTPEVTCVVVDVSHEDGEVKFNWYVDGVEVHNAKTKPREEQYNSTYRVVSVLTVLHQDWLNGKEYKCKVSNAALPKPIEKTISKAKGQPREPQVYTLPPSRDELTKNQVSLTCLVKGFYPSDIAVEWESNGQPENNYKTTPPVLDSDGSFFLYSKLTVDKSRWQQGNVFSCSVMHEALHNHYTQESLSLSP light: DIQMTQSPSSLSASVGDRVTITCRASQDISSYLNWYQQKPGKAPKLLIYYTSRLHSGVPSRFSGSGSGTDFTFTISSLQPEDIATYYCQQGNTLPYTFGQGTKVEIK |  | 150 % of IL6R-BF648/IL6R-L | 362 % of IL6R-BF648/IL6R-L | 122 % of IL6R-BF648/IL6R-L | 108 % of IL6R-BF648/IL6R-L
